In the assay the target is T1, human ICAM-1 (R&D Systems) (human, UniProt P05362 28-480).
T1 construct: ICAM-1, human, recombinant, bought; No catalogue number printed; also called recombinant human ICAM-1; source: bought: R&D Systems
In words: ELISA; 96-well Maxisorb plates coated with 0.1 µM human or mouse ICAM-1 (or BSA, 30 µM); recombinant human or mouse αM I-domain added; anti-His-HRP, OD 450 nm. The note with it: both partners purified. In general terms: An ELISA detects its analyte on a solid surface through an enzyme-linked reagent.

We go through 1 molecule from PMC7960600, “A DARPin targeting activated Mac-1 is a novel diagnostic tool and potential anti-inflammatory agent in myocarditis, sepsis and myocardial infarction” (Basic Research in Cardiology, 2021).

T1 sequence (P05362 28-480): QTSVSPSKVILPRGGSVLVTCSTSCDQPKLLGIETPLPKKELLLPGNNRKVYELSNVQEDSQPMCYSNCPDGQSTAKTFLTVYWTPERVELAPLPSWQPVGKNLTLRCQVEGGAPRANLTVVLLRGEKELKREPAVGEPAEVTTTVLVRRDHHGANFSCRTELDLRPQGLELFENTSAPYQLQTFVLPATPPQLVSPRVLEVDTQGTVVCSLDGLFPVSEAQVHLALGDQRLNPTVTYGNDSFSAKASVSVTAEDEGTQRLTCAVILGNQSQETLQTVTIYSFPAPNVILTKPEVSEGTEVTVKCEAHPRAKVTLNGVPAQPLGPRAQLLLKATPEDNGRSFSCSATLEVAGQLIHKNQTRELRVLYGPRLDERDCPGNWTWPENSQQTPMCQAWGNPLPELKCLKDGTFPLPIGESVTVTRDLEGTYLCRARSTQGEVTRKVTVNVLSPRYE

B1: recombinant human αM I-domain (wild type) (domain or fragment)
chain: RQQPQKFPEALRGCPQEDSDIAFLIDGSGSIIPHDFRRMKEFVSTVMEQLKKSKTLFSLMQYSEEFRIHFTFKEFQNNPNPRSLVKPITQLLGRTHTATGIRKVVRELFNITNGARKNAFKILVVITDGEKFGDPLGYEDVIPEADREGVIRYVIGVGDAFRSEKSRQELNTIASKPPRDHVFQVNNFEALKTIQNQLREKIFAIEGTQTGSSSSFEHEMSQEGFSAAALEHHHHHH
notes: I-domain of the αM chain (CD11b) of human Mac-1; no start methionine or leader is printed; source: E. coli BL21 DE3 (vector pET-20b(+)), purified (Ni beads, dialysed against PBS); not shown: His6, C-terminal, kept
For B1, the binding result is reported as “binds”.
